Two substances from patent US20010023062A1 can be followed below.

Experiment [1] concerns the target IL-5Rα/IFNaR1 + βc/IFNaR2-2 (human) (UniProt Q01344). In words: cell-based or functional assay.
In experiment [2] the target is IL-5Rα/IFNaR2-2 + βc/IFNaR1 (human) (UniProt Q01344). In words: cell-based or functional assay.

In the case of “IL-5 (produced in Sf9 cells using published methodologies) (from UniProt P05113 20-134) (ligand)”, in experiment [1], the colonies in HAT + IL-5 (6-16 gpt selection, transfected 2fTGH cells, 1 ng/ml IL-5) came out at 3 colonies. In experiment [2], the SEAP activity (6-16SEAP reporter, transient transfection of 2fTGH cells), 1 ng/ml IL-5, against untreated cells came out at 5 fold; the SEAP activity (6-16SEAP reporter, transient transfection of 2fTGH cells), 2 ng/ml IL-5, against untreated cells came out at 6 fold; the colonies in HAT + IL-5 (6-16 gpt selection, transfected 2fTGH cells, 1 ng/ml IL-5) is 13 colonies.
Regarding “hIL-5syn (human IL-5 expressed by the cells from pEFBOS-hIL-5syn or pMET7-hIL-5syn) (from UniProt P05113 20-134) (ligand)”, the colonies surviving in HAT medium without added IL-5 (clone C cells transfected with pEFBOS-hIL-5syn) in experiment [2] came to 6 colonies.
